Measured values from US20200123264A1 (Regeneron, published 2020).

What was measured:
Test in all cases: Luminex, myc-captured LEPR protein on beads, Ab 0.5 µg/mL
[1] = target: T1, human LEPR CRH1 (D1,D2)-MMH (human, UniProt P48357 22-339, limits assumed)
T1 construct: domain: CRH1 (D1,D2); Transiently expressed, captured from supernatant on anti-myc beads
T1 sequence (looked up): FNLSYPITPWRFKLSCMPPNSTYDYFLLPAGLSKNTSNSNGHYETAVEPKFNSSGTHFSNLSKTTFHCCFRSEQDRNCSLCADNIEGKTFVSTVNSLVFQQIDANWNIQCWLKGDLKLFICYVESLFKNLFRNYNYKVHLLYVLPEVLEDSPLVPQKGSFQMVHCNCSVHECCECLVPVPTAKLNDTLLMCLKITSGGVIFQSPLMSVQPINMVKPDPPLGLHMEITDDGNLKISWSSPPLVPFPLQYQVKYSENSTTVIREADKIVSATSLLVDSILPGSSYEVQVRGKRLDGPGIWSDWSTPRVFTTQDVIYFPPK
Method: (§1) Aliquots of microspheres with immobilized anti-myc monoclonal antibodies, prepared as described above, were added individually to 1 mL of the each of these protein supernatants. The microspheres were gently mixed, incubated for two hours at 25° C., washed twice with 1 mL of DBPS, centrifuged to remove the supernatant and finally resuspended in 1 mL of DPBS buffer. Forty eight μL of anti-myc IgG coupled microspheres from individual reactions with full length human LEPR and with each of the human LEPR domain proteins were withdrawn and mixed together in 3.6 mL of PBS+20 mg/mL BSA+0.05% sodium azide (blocking buffer).
(§2) From this mixed pool, 75 μL of microspheres were plated per well on a 96 well filter plate (Millipore, Cat. No: MSBVN1250) and mixed with 25 μL of individual anti-human LEPR monoclonal antibodies (0.5 or 5 μg/mL), incubated for two hours at 25° C. and then washed twice with 200 μL of DPBS with 0.05% Tween 20 (washing buffer). […] After 30 minutes, the samples were washed twice with 200 μL of washing buffer and resuspended in 150 μL of wash buffer. The Median Fluorescence intensity (MFI) of the microspheres was measured in a Luminex Analyzer.

human LEPR FNIII-MMH = target: T2, human LEPR FNIII-MMH (human, UniProt P48357 636-839, limits assumed)
T2 construct: domain: FNIII; Transiently expressed, captured from supernatant on anti-myc beads
T2 sequence (looked up): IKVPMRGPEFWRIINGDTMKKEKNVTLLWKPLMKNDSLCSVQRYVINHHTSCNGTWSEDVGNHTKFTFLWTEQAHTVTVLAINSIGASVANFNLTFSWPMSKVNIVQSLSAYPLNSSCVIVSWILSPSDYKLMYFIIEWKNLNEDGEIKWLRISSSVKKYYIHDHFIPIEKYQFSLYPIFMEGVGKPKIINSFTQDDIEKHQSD
Method: as §1, §2

[2] = target: T3, human LEPR CRH1 (D1,D2,D3)-MMH (human, UniProt P48357 22-427, limits assumed)
T3 construct: domain: CRH1-Ig (D1,D2,D3); Transiently expressed, captured from supernatant on anti-myc beads; also called CRH1-Ig (D1, D2, D3)
T3 sequence (looked up): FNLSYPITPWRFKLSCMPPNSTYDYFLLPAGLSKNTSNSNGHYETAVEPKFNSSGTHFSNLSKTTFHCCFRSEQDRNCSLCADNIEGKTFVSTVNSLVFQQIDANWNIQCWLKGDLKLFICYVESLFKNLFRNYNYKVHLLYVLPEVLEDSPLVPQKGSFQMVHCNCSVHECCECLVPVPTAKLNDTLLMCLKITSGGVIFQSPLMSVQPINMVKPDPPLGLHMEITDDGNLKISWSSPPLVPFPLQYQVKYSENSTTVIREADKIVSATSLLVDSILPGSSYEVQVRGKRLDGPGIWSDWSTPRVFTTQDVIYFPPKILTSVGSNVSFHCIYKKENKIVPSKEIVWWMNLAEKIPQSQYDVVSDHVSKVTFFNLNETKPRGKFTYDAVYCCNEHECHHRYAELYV
Method: as §1, §2

human LEPR CRH1 (D1)-MMH = target: T4, human LEPR CRH1 (D1)-MMH (human, UniProt P48357 22-229, limits assumed)
T4 construct: domain: CRH1 (D1); Transiently expressed, captured from supernatant on anti-myc beads
T4 sequence (looked up): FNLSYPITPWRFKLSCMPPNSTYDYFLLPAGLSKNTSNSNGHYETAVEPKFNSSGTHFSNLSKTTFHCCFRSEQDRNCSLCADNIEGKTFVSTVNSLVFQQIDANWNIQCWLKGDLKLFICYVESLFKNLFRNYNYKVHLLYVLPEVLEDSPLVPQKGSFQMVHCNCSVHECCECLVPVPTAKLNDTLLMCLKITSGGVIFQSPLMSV
Method: as §1, §2

[3] = target: T5, human LEPR CRH1-Ig (D2,D3)-MMH (human, UniProt P48357 230-427, limits assumed)
T5 construct: domain: CRH1-Ig (D2,D3); Transiently expressed, captured from supernatant on anti-myc beads
T5 sequence (looked up): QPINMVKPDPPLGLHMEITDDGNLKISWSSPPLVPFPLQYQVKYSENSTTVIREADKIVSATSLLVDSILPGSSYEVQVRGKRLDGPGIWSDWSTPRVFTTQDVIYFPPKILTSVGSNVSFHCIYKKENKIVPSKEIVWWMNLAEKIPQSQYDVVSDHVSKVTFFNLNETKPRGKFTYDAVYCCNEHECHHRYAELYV
Method: as §1, §2

B1: H4H18462P2 (antibody, human IgG4, V domains shown)
VH: EVQLVESGGDLVQPGRSLRLSCAASGFTFSSFAMSWVRQAPGRGLEWVSSLSDSGDNTYYADSVKGRFTISRDNSKNTLYLQMNNLRAEDTAVYYCAKDLFSGWLFHGFDVWGQGTMVTVSS
VL: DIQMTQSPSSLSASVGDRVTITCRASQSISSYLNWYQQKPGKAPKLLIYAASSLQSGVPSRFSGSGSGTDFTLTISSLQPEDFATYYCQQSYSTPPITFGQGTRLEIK
notes: H4H prefix: human IgG4 Fc
Luminex MFI [1]: 665 MFI
Luminex MFI (human LEPR FNIII-MMH): 229 MFI
Luminex MFI [2]: 461 MFI
Luminex MFI (human LEPR CRH1 (D1)-MMH): 615 MFI
Luminex MFI [3]: 25 MFI
